Measurements: IntAct's records for PubMed 32514408

B1: TNF receptor-associated factor 3 (Homo sapiens), Q13114 (parent)
chain: MESSKKMDSPGALQTNPPLKLHTDRSAGTPVFVPEQGGYKEKFVKTVEDKYKCEKCHLVLCSPKQTECGHRFCESCMAALLSSSSPKCTACQESIVKDKVFKDNCCKREILALQIYCRNESRGCAEQLMLGHLLVHLKNDCHFEELPCVRPDCKEKVLRKDLRDHVEKACKYREATCSHCKSQVPMIALQKHEDTDCPCVVVSCPHKCSVQTLLRSELSAHLSECVNAPSTCSFKRYGCVFQGTNQQIKAHEASSAVQHVNLLKEWSNSLEKKVSLLQNESVEKNKSIQSLHNQICSFEIEIERQKEMLRNNESKILHLQRVIDSQAEKLKELDKEIRPFRQNWEEADSMKSSVESLQNRVTELESVDKSAGQVARNTGLLESQLSRHDQMLSVHDIRLADMDLRFQVLETASYNGVLIWKIRDYKRRKQEAVMGKTLSLYSQPFYTGYFGYKMCARVYLNGDGMGKGTHLSLFFVIMRGEYDALLPWPFKQKVTLMLMDQGSSRRHLGDAFKPDPNSSSFKKPTGEMNIASGCPVFVAQTVLENGTYIKDDTIFIKVIVDTSDLPDP
partner: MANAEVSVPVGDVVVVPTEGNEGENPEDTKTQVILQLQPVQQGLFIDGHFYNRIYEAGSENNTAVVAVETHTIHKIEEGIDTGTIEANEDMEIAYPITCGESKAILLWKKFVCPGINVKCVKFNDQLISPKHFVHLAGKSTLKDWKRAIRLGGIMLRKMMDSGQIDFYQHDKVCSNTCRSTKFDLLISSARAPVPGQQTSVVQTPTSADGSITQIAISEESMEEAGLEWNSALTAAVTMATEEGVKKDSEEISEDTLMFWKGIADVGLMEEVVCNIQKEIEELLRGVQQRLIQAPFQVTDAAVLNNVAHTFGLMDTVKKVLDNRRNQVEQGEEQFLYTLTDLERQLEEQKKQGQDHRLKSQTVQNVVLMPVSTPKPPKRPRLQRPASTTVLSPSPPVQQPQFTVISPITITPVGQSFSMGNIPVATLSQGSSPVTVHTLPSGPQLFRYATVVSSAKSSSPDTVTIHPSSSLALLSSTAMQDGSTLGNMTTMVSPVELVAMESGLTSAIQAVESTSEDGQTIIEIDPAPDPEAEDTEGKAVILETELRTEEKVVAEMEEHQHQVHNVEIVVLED

Variants of: B1
Conditions: with gmeb1_human GMEB1, Q9Y692

Variant | effect of a mutation on the interaction
MESSKKMDSPGALQTNPPLKLHTDRSAGTPVFVPEQGGYKEKFVKTVEDKYKAEKAHLVLCSPKQTECGHRFCESCMAALLSSSSPKCTACQESIVKDKVFKDNCCKREILALQIYCRNESRGCAEQLMLGHLLVHLKNDCHFEELPCVRPDCKEKVLRKDLRDHVEKACKYREATCSHCKSQVPMIALQKHEDTDCPCVVVSCPHKCSVQTLLRSELSAHLSECVNAPSTCSFKRYGCVFQGTNQQIKAHEASSAVQHVNLLKEWSNSLEKKVSLLQNESVEKNKSIQSLHNQICSFEIEIERQKEMLRNNESKILHLQRVIDSQAEKLKELDKEIRPFRQNWEEADSMKSSVESLQNRVTELESVDKSAGQVARNTGLLESQLSRHDQMLSVHDIRLADMDLRFQVLETASYNGVLIWKIRDYKRRKQEAVMGKTLSLYSQPFYTGYFGYKMCARVYLNGDGMGKGTHLSLFFVIMRGEYDALLPWPFKQKVTLMLMDQGSSRRHLGDAFKPDPNSSSFKKPTGEMNIASGCPVFVAQTVLENGTYIKDDTIFIKVIVDTSDLPDP [C53A;C56A] | with no effect
